The assay deals with enzyme I (phosphoenolpyruvate-protein phosphotransferase, EC 2.7.3.9) of the E. coli phosphotransferase system (E. coli) (UniProt P08839). The assay can be described thus: cell-based or functional assay.

In turn, “HPr protein (phosphorylcarrier protein HPr) (from UniProt P0AA04 1-85)” showed an uncoupling P;Ipeptide/h of 2.7 Pi/peptide/h.

(Values after patent publication EP0866075B1, “Method to treat microbial infections by uncoupling of phosphotransferase system and appropriate agents therefor” (Arpida AG,, priority 1997, dated 1998).)
